From IntAct's records for PubMed 36833176

Target: csk21_human CSNK2A1 (UniProt P68400)
Sequence (P68400 whole entry, looked up): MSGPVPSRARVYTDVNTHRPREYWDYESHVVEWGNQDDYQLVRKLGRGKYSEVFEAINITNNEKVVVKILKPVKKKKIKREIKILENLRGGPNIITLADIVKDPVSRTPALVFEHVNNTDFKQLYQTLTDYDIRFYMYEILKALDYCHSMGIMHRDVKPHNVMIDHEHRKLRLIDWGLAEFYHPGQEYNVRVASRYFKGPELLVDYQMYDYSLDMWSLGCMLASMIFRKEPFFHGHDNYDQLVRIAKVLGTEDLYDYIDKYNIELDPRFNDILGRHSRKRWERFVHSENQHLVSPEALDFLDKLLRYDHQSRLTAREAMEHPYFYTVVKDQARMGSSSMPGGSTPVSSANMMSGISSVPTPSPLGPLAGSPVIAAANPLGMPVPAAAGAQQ

Sequence of Casein kinase II subunit beta (Homo sapiens), P67870 L39R (P67870 whole entry L39R): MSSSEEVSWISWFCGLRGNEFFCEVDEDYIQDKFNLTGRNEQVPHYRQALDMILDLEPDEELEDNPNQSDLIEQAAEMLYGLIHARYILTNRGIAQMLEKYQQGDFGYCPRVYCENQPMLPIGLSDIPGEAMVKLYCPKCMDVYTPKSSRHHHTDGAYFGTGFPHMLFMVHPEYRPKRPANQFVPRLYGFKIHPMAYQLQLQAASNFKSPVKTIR

- effect of a mutation on the interaction: decreasing interaction strength
Substance: Casein kinase II subunit beta (Homo sapiens), P67870 L39R
